Experimental data taken from PMC10465345, “Development of a growth-coupled selection platform for directed evolution of heme biosynthetic enzymes in Corynebacterium glutamicum” (Frontiers in Bioengineering and Biotechnology, 2023).

The proteins below were run on CC1=C(CCC(=O)O)c2cc3nc(cc4[nH]c(cc5[nH]c(cc1n2)c(C)c5CCC(=O)O)c(CCC(=O)O)c4C)C(CCC(=O)O)=C3C (assay: purified protein). Details: ferrous ammonium sulfate 100 uM, Tris-HCl pH 8.0, 3.3% Tween 20, 5 mM glutathione, 30 °C.
Type: biochemical, Corynebacterium glutamicum

Row | Protein | Km | kcat [s⁻¹] | kcat/Km [M⁻¹ s⁻¹]
1 | CpfC (coproporphyrin ferrochelatase) (Corynebacterium glutamicum ATCC 13032) (protein, heterologously expressed in E. coli BL21, purified) MNERTSDAFDALLVLSFGGPEGHEEVRPFLENVTHGRGIPPERLDEVAVHYHHFGGISPINALNREIIANVEKELASRDHKLPVYFGNRNWKPFDNEAAEQMADDGVKNALVLATSAWGGYSGCRQYQEDIQGMIKHLESQGQSITFTKLRQFYDHPRFVSTMAQLVQDSYAKLPDELRDEARLVFTAHSIPLTADNAAGTPEDGSLYSTQVKEASALIAEAVGVSDFDVVWQSRSGSPHTPWLEPDIVDHAVELNEKGQKALVVCPVGFISDHMEVIWDLDSELMEEAEKRNMVVERVATVGPTDEFAALVVDLIEEAELKRVIERLGKLPARGSSVNGAPCGDGCCGTAKHKTARVNPNARSAAPAAN | 15.17 ± 1.84 × 10^-3 mM | 0.26 ± 0.09 | 17430 ± 110
2 | CpfC (coproporphyrin ferrochelatase) (Corynebacterium glutamicum ATCC 13032; E100D) (protein, heterologously expressed in E. coli BL21, purified) MNERTSDAFDALLVLSFGGPEGHEEVRPFLENVTHGRGIPPERLDEVAVHYHHFGGISPINALNREIIANVEKELASRDHKLPVYFGNRNWKPFDNEAADQMADDGVKNALVLATSAWGGYSGCRQYQEDIQGMIKHLESQGQSITFTKLRQFYDHPRFVSTMAQLVQDSYAKLPDELRDEARLVFTAHSIPLTADNAAGTPEDGSLYSTQVKEASALIAEAVGVSDFDVVWQSRSGSPHTPWLEPDIVDHAVELNEKGQKALVVCPVGFISDHMEVIWDLDSELMEEAEKRNMVVERVATVGPTDEFAALVVDLIEEAELKRVIERLGKLPARGSSVNGAPCGDGCCGTAKHKTARVNPNARSAAPAAN | 9.40 ± 1.50 × 10^-3 mM | 0.36 ± 0.06 | 38100 ± 650
3 | CpfC (coproporphyrin ferrochelatase) (Corynebacterium glutamicum ATCC 13032; E100D/E31V) (protein, heterologously expressed in E. coli BL21, purified) MNERTSDAFDALLVLSFGGPEGHEEVRPFLVNVTHGRGIPPERLDEVAVHYHHFGGISPINALNREIIANVEKELASRDHKLPVYFGNRNWKPFDNEAADQMADDGVKNALVLATSAWGGYSGCRQYQEDIQGMIKHLESQGQSITFTKLRQFYDHPRFVSTMAQLVQDSYAKLPDELRDEARLVFTAHSIPLTADNAAGTPEDGSLYSTQVKEASALIAEAVGVSDFDVVWQSRSGSPHTPWLEPDIVDHAVELNEKGQKALVVCPVGFISDHMEVIWDLDSELMEEAEKRNMVVERVATVGPTDEFAALVVDLIEEAELKRVIERLGKLPARGSSVNGAPCGDGCCGTAKHKTARVNPNARSAAPAAN | 9.78 ± 0.82 × 10^-3 mM | 0.36 ± 0.04 | 37000 ± 4520
4 | CpfC (coproporphyrin ferrochelatase) (Corynebacterium glutamicum ATCC 13032; E31V) (protein, heterologously expressed in E. coli BL21, purified) MNERTSDAFDALLVLSFGGPEGHEEVRPFLVNVTHGRGIPPERLDEVAVHYHHFGGISPINALNREIIANVEKELASRDHKLPVYFGNRNWKPFDNEAAEQMADDGVKNALVLATSAWGGYSGCRQYQEDIQGMIKHLESQGQSITFTKLRQFYDHPRFVSTMAQLVQDSYAKLPDELRDEARLVFTAHSIPLTADNAAGTPEDGSLYSTQVKEASALIAEAVGVSDFDVVWQSRSGSPHTPWLEPDIVDHAVELNEKGQKALVVCPVGFISDHMEVIWDLDSELMEEAEKRNMVVERVATVGPTDEFAALVVDLIEEAELKRVIERLGKLPARGSSVNGAPCGDGCCGTAKHKTARVNPNARSAAPAAN | 8.26 ± 0.52 × 10^-3 mM | 0.43 ± 0.01 | 52900 ± 1400
5 | CpfC (coproporphyrin ferrochelatase) (Corynebacterium glutamicum ATCC 13032; T194S) (protein, heterologously expressed in E. coli BL21, purified) MNERTSDAFDALLVLSFGGPEGHEEVRPFLENVTHGRGIPPERLDEVAVHYHHFGGISPINALNREIIANVEKELASRDHKLPVYFGNRNWKPFDNEAAEQMADDGVKNALVLATSAWGGYSGCRQYQEDIQGMIKHLESQGQSITFTKLRQFYDHPRFVSTMAQLVQDSYAKLPDELRDEARLVFTAHSIPLSADNAAGTPEDGSLYSTQVKEASALIAEAVGVSDFDVVWQSRSGSPHTPWLEPDIVDHAVELNEKGQKALVVCPVGFISDHMEVIWDLDSELMEEAEKRNMVVERVATVGPTDEFAALVVDLIEEAELKRVIERLGKLPARGSSVNGAPCGDGCCGTAKHKTARVNPNARSAAPAAN | 11.63 ± 1.50 × 10^-3 mM | 0.32 ± 0.06 | 27300 ± 4880
6 | CpfC (coproporphyrin ferrochelatase) (Corynebacterium glutamicum ATCC 13032; E181G) (protein, heterologously expressed in E. coli BL21, purified) MNERTSDAFDALLVLSFGGPEGHEEVRPFLENVTHGRGIPPERLDEVAVHYHHFGGISPINALNREIIANVEKELASRDHKLPVYFGNRNWKPFDNEAAEQMADDGVKNALVLATSAWGGYSGCRQYQEDIQGMIKHLESQGQSITFTKLRQFYDHPRFVSTMAQLVQDSYAKLPDELRDGARLVFTAHSIPLTADNAAGTPEDGSLYSTQVKEASALIAEAVGVSDFDVVWQSRSGSPHTPWLEPDIVDHAVELNEKGQKALVVCPVGFISDHMEVIWDLDSELMEEAEKRNMVVERVATVGPTDEFAALVVDLIEEAELKRVIERLGKLPARGSSVNGAPCGDGCCGTAKHKTARVNPNARSAAPAAN | 10.04 ± 1.52 × 10^-3 mM | 0.3 ± 0.04 | 30600 ± 4310
